{"source": "paper PMC11189301", "about": "“Structure of the human outer kinetochore KMN network complex” (Nature Structural & Molecular Biology, 2024)", "molecules": {"B1": {"name": "Spc24 (natural protein, Homo sapiens, UniProt Q8NBT2 1-197, looked up)", "chain": "MAAFRDIEEVSQGLLSLLGANRAEAQQRRLLGRHEQVVERLLETQDGAEKQLREILTMEKEVAQSLLNAKEQVHQGGVELQQLEAGLQEAGEEDTRLKASLLQLTRELEELKEIEADLERQEKEVDEDTTVTIPSAVYVAQLYHQVSKIEWDYECEPGMVKGIHHGPSVAQPIHLDSTQLSRKFISDYLWSLVDTEW", "notes": "Spc24, subunit of human NDC80C; coordinates traced G86–W197; Subunit within the KMN network cryo-EM sample; source: High-5 insect cells, expressed and purified as part of NDC80C"}, "B2": {"name": "CENP-C^2–22 peptide (peptide)", "peptide": "Ac-AASGLDHLKNGYRRRFCRPSRA-NH2", "notes": "CENP-C, human, named residues 2-22; also called N-terminal region of CENP-C (residues 2–22); source: synthetic peptide (Biosynth)"}}, "key": {"MIS12C (WT)": {"biological_target": "T1, MIS12C (WT) (Homo sapiens, UniProt Q6P1K2+Q96IY1+Q9H081+Q9H410)", "T1 construct": "TEV-cleavable double Strep II (DS) tag (C); made in house; host or cells: High-5 insect cells (baculovirus)", "experiment": "Isothermal titration calorimetry (ITC), peptide titrated into wild-type MIS12C", "format": "binding", "settings": "20 °C, pH 7.5, wild-type MIS12C"}, "MIS12C^Dsn1ΔN": {"biological_target": "T2, MIS12C^Dsn1ΔN (Homo sapiens, UniProt Q6P1K2+Q96IY1+Q9H081+Q9H410, DEL6-113)", "T2 construct": "all proteins, apart from Knl1, were full length; TEV-cleavable double Strep II (DS) tag (C); made in house; host or cells: High-5 insect cells (baculovirus; Nsl1-Dsn1 virus plus Mis12-Pmf1 virus)", "experiment": "ITC, peptide titrated into MIS12C with deleted Dsn1^N (residues 6–113)", "format": "binding", "settings": "ITC Kd ratio, MIS12C^Dsn1ΔN vs MIS12C"}, "MIS12C": {"tested_on": "MIS12C", "settings": "cited from earlier work", "text": "We used isothermal titration calorimetry (ITC) to test this structural model by measuring the affinities of MIS12C for both a peptide modeled on CENP-C and a Dsn1^N auto-inhibitory peptide, including structure-guided interface mutants (Fig. 2g and Extended Data Fig. 4). […] Deletion of Dsn1^N (residues 6–113; MIS12C ..."}, "[1]": {"tested_on": "MIS12^Dsn1-W96A R97A R98A", "experiment": "Analytical SEC, CENP-C^1–71 binding to MIS12C with WRR linchpin substitutions", "parameters": "species or system Homo sapiens", "settings": "4 µM CENP-C^1–71-MBP + 4 µM MIS12^Dsn1-W96A R97A R98A; 20 mM HEPES pH 7.8, 150 mM NaCl, 0.5 mM TCEP; Superdex S200; SDS-PAGE; at least two repeats", "method": "(§1) Four micromolar of CENP-C^1–71-MBP was mixed with 4 µM of either wild-type MIS12C or three mutants (MIS12C^ΔN-Dsn1, MIS12^Dsn1-W96A R97A R98A, MIS12C^Dsn1-S100D S109D) in a buffer of 20 mM HEPES (pH 7.8), 150 mM NaCl and 0.5 mM TCEP, and 50 µl of the mixture was loaded onto a Superdex S200 size-exclusion column (Cytiva).\n(§2) Coloured by pLDDT score. e AlphaFold2 Multimer prediction of the K. lactis MIS12C coloured by subunit with insert highlighting conservation of the auto-inhibitory Dsn1^N mechanism. Source data"}, "Wild-type MIS12C": {"tested_on": "Wild-type MIS12C", "experiment": "Analytical size-exclusion chromatography (SEC), CENP-C^1–71 binding to wild-type MIS12C", "parameters": "species or system Homo sapiens", "settings": "4 µM CENP-C^1–71-MBP + 4 µM wild-type MIS12C; 20 mM HEPES pH 7.8, 150 mM NaCl, 0.5 mM TCEP; Superdex S200; SDS-PAGE; at least two repeats", "method": "as §1, §2"}, "Spc25": {"biological_target": "T3, Spc25 (Homo sapiens, UniProt Q9HBM1 1-224)", "T3 construct": "Spc25, subunit of human NDC80C; coordinates traced D80–N224; Subunit within the KMN network cryo-EM sample; source: High-5 insect cells, expressed and purified as part of NDC80C", "T3 sequence (looked up)": "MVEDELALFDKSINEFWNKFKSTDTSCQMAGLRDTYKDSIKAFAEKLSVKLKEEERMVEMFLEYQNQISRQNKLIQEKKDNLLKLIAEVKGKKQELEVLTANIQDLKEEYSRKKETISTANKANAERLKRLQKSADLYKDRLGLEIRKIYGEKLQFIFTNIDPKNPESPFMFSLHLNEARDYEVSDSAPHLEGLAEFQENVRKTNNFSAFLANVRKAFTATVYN", "experiment": "cryo-EM structure; NDC80C, MIS12C and KNL1C mixed 1:1:1 and run on Superose 6 in 20 mM HEPES pH 8.0, 80 mM NaCl, 1 mM MgCl2, 1 mM TCEP; about 1 mg/ml on UltrAuFoil grids; 3.0 Å (MIS12C heads 3.8 Å)", "settings": "both partners purified"}, "Dsn1": {"biological_target": "T4, Dsn1 (Homo sapiens, UniProt Q9H410 1-356)", "T4 construct": "Dsn1, subunit of human MIS12C; Subunit within the KMN network cryo-EM sample; residues N-terminal to Arg92 are disordered; source: High-5 insect cells, expressed and purified as part of MIS12C", "T4 sequence (looked up)": "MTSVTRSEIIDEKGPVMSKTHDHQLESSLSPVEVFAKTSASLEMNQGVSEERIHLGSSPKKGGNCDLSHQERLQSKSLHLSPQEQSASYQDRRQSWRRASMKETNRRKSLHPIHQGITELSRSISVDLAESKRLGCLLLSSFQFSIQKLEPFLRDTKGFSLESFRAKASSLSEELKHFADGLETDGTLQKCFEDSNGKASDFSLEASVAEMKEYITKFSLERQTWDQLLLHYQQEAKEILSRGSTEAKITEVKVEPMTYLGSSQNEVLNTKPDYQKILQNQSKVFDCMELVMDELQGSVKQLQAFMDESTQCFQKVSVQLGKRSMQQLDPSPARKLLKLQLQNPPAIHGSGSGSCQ", "experiment": "cryo-EM structure; NDC80C, MIS12C and KNL1C mixed 1:1:1 and run on Superose 6 in 20 mM HEPES pH 8.0, 80 mM NaCl, 1 mM MgCl2, 1 mM TCEP; about 1 mg/ml on UltrAuFoil grids; 3.0 Å (MIS12C heads 3.8 Å)", "settings": "both partners purified"}, "Nsl1": {"biological_target": "T5, Nsl1 (Homo sapiens, UniProt Q96IY1 1-281)", "T5 construct": "Nsl1, subunit of human MIS12C; Subunit within the KMN network cryo-EM sample; source: High-5 insect cells, expressed and purified as part of MIS12C", "T5 sequence (looked up)": "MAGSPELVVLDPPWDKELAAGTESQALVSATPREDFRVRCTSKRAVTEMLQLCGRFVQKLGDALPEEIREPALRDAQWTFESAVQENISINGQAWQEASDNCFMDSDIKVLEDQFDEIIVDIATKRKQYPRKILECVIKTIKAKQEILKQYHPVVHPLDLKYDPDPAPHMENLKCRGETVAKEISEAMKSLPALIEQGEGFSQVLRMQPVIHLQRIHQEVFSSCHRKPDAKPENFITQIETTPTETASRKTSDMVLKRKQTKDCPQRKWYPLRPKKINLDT", "experiment": "cryo-EM structure; NDC80C, MIS12C and KNL1C mixed 1:1:1 and run on Superose 6 in 20 mM HEPES pH 8.0, 80 mM NaCl, 1 mM MgCl2, 1 mM TCEP; about 1 mg/ml on UltrAuFoil grids; 3.0 Å (MIS12C heads 3.8 Å)", "settings": "both partners purified"}, "[2]": {"biological_target": "T6, MIS12 complex with Dsn1 residues 6–113 deleted (Homo sapiens, UniProt Q9H081 1-205; Q6P1K2 1-205; Q9H410 1-356; Q96IY1 1-281, 6–113 residues deleted)", "T6 construct": "Mis12, subunit of human MIS12C; Pmf1, subunit of human MIS12C; Nsl1, subunit of human MIS12C; also called MIS12C^Dsn1ΔN; MIS12C^ΔN-Dsn1; source: High-5 insect cells (baculovirus), purified (Strep-Tactin, Resource S, Superdex 200); copies: + + +", "T6 sequence (looked up) 1": "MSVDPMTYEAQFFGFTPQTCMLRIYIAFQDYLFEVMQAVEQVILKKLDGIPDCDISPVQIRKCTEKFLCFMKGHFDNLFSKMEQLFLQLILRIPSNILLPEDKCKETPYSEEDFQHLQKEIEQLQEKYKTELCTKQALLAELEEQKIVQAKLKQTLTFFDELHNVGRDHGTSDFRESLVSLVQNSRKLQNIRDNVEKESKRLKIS", "T6 sequence (looked up) 2": "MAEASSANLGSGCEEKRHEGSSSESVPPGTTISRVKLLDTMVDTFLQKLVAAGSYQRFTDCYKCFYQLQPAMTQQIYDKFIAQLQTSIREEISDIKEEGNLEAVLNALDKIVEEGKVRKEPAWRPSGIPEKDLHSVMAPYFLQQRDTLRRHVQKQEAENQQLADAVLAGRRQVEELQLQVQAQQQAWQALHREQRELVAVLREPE", "T6 sequence (looked up) 3": "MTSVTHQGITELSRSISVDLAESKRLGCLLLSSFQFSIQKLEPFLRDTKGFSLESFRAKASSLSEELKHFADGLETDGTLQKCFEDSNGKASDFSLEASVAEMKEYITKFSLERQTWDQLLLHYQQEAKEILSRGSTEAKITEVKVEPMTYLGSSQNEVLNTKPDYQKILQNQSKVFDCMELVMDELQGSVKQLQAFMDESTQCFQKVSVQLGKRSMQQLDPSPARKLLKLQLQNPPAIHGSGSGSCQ", "T6 sequence (looked up) 4": "T5 sequence (looked up)", "experiment": "ITC; peptide in the syringe titrated into the MIS12C variant in the cell; 20 °C; 20 mM HEPES pH 7.5, 100 mM NaCl, 1 mM TCEP; single-site binding model; duplicate or triplicate", "settings": "both partners purified"}, "[3]": {"biological_target": "T7, MIS12 complex (Mis12, Pmf1, Dsn1, Nsl1), wild type, full length (Homo sapiens, UniProt Q9H081 1-205; Q6P1K2 1-205; Q9H410 1-356; Q96IY1 1-281)", "T7 construct": "Mis12, subunit of human MIS12C; Pmf1, subunit of human MIS12C; Dsn1, subunit of human MIS12C; Nsl1, subunit of human MIS12C; The DS tag on Pmf1 is TEV cleavable; a cleavage is not described; also called MIS12C (WT); wild-type MIS12C; source: High-5 insect cells (baculovirus), purified (Strep-Tactin, Resource S, Superdex 200); copies: + + +", "T7 sequence (looked up) 1": "T6 sequence (looked up) 1", "T7 sequence (looked up) 2": "T6 sequence (looked up) 2", "T7 sequence (looked up) 3": "T4 sequence (looked up)", "T7 sequence (looked up) 4": "T5 sequence (looked up)", "experiment": "ITC; peptide in the syringe titrated into the MIS12C variant in the cell; 20 °C; 20 mM HEPES pH 7.5, 100 mM NaCl, 1 mM TCEP; single-site binding model; duplicate or triplicate", "settings": "both partners purified"}, "[4]": {"biological_target": "T8, MIS12 complex with phosphomimetic Dsn1 S100D S109D (Homo sapiens, UniProt Q9H081 1-205; Q6P1K2 1-205; Q9H410 1-356; Q96IY1 1-281, S100D | S109D)", "T8 construct": "Mis12, subunit of human MIS12C; Pmf1, subunit of human MIS12C; Dsn1, subunit of human MIS12C, S100D S109D; Nsl1, subunit of human MIS12C; also called MIS12C^(Dsn1-S100D S109D); MIS12C^(Dsn1 S100D/S109D); source: High-5 insect cells (baculovirus), purified (Strep-Tactin, Resource S, Superdex 200); copies: + + +", "T8 sequence (looked up) 1": "T6 sequence (looked up) 1", "T8 sequence (looked up) 2": "T6 sequence (looked up) 2", "T8 sequence (looked up) 3": "T4 sequence (looked up) with S100D, S109D", "T8 sequence (looked up) 4": "T5 sequence (looked up)", "experiment": "ITC; peptide in the syringe titrated into the MIS12C variant in the cell; 20 °C; 20 mM HEPES pH 7.5, 100 mM NaCl, 1 mM TCEP; single-site binding model; duplicate or triplicate", "settings": "both partners purified"}}, "note": "Substitutions are numbered along the chain they refer to.", "data": [{"molecule": "Ac-RRQSWRRASMKETNRRKSLHPIAW-NH2 [Dsn1^92–113]", "values": [{"measurement": "affinity of Dsn1^92–113 for MIS12C, in words", "setting": "MIS12C (WT)", "result": "high-micromolar affinity"}, {"measurement": "enhancement of Dsn1^92–113 binding on deleting Dsn1^N, relative to MIS12C (WT)", "setting": "MIS12C^Dsn1ΔN", "result": 44, "unit": "fold"}]}, {"molecule": "residues 1–21 of CENP-C: residues 1–21 of CENP-C, prior data of ref 10", "values": [{"measurement": "increase in affinity of MIS12C for residues 1–21 of CENP-C on deleting a ten-residue segment of Dsn1 incorporating Ser100 and Ser109", "setting": "MIS12C", "result": 90, "unit": "fold"}]}, {"molecule": "CENP-C^1–71: CENP-C residues 1–71 fused to a C-terminal maltose-binding protein (MBP) tag, expressed in E. coli", "values": [{"measurement": "CENP-C^1–71 binding by SEC, in words", "setting": "[1]", "result": "binding of almost all CENP-C"}, {"measurement": "CENP-C^1–71 binding by SEC, in words", "setting": "Wild-type MIS12C", "result": "only partially bound"}]}, {"molecule": "B1", "values": [{"measurement": "binding result", "setting": "Spc25", "result": "binds"}, {"measurement": "binding result", "setting": "Dsn1", "result": "binds"}, {"measurement": "binding result", "setting": "Nsl1", "result": "binds"}]}, {"molecule": "B2", "values": [{"measurement": "Kd", "setting": "[2]", "result": 10.2, "unit": "nM"}, {"measurement": "Kd", "setting": "[3]", "result": 485, "unit": "nM"}, {"measurement": "Kd", "setting": "[4]", "result": 20.4, "unit": "nM"}]}]}
